Target: F-actin (rabbit skeletal actin) (Oryctolagus cuniculus (Rabbit), UniProt P68135)
Experiment: F-actin co-sedimentation (SDS-PAGE/CBB); actin in filamentous form; binding antagonized by Myo5a-MTD (mutually exclusive with exon-G)

B1: GST-Mlph-ABD (the GST-tagged ABD of Mlph, residues 401–590) (protein)
chain: SSEDETKPDGTFLGGSPKVCTDTGHMETQERNPRSPGNPARPTKSTDEELSEMEDRVAMTASEVQQAESEISDIESRIAALRAAGLTVKPSGKPRRKSGIPIFLPRVTEKLDRIPKTPPADPDDQAKMPKATTAVPSLLRRKYSPSSQGVDSGSFDRKSVYRGSLTQRNPNGRRGTARHIFAKPVMAQQP
Does B1 bind?
Result: binds

— publication PMC11189624 (2024)
